Key:
[1] = biological target: single-chain SIINFEKL-H2Kb expressed on K562 cells (mouse); test: flow cytometry, purified OT1-TCR-Igg at 20 nM on K562 cells expressing single-chain SIINFEKL-H2Kb
[2] = biological target: single-chain SIINFEKL-H2Kb expressed on K562 cells (mouse); test: flow cytometry dot plot (APC-A against Pacific Blue-A) of K562 cells expressing single-chain SIINFEKL-H2Kb, stained with raw supernatant; number printed in the gate 'TCR-Igg pos stain' (same gate in the Negative ctl panel: 1.15)

“OT1-TCR-Igg (OTI TCRα-LZL-mIgG HC + OTI TCRβ-LZR-mIgG LC, two separate plasmids)” gave a percent of cells stained at 20 nM [1] of 100% and a TCR-Igg pos stain [2] of 39.3.

Reference: patent publication US20220275043A1
